Source: the supplement of paper PMC10065799, “High-throughput profiling of sequence recognition by tyrosine kinases and SH2 domains using bacterial peptide display” (eLife, 2023)

How the values were obtained:
AncSZ = experiment: phosphorylation enrichment, bacterial display (enrichment ratio); higher = better substrate or ligand; peptides without Tyr show the background
Fes = Fes (UniProt P07332); experiment: as above
Fer (mouse) = experiment: as above
Fyn = Fyn (UniProt P06241); experiment: as above
EPHB1 = EPHB1 (UniProt P54762); experiment: as above
Hck = Hck (UniProt P08631); experiment: as above
FGFR1 = FGFR1 (UniProt P11362); experiment: as above
Jak2 = Jak2 (UniProt O60674); experiment: as above
FGFR3 = FGFR3 (UniProt P22607); experiment: as above
c-Src = experiment: as above
c-Abl (mouse) = experiment: as above
MERTK = MERTK (UniProt Q12866); experiment: as above
EPHB2 = EPHB2 (UniProt P29323); experiment: as above
c-Src SH2 = experiment: SH2 binding enrichment of the phosphorylated peptide, bacterial display (enrichment ratio); higher = better substrate or ligand; peptides without Tyr show the background
SHP2-C SH2 = experiment: as above
Grb2 SH2 = Grb2 SH2 (UniProt P62993); experiment: as above
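Throughout, for SH2 binding enrichment of the phosphorylated peptide, bacterial display: peptide library displayed on the E. coli surface as eCPX fusions, selected cells deep-sequenced, score is each peptide's frequency after selection divided by its frequency in the input.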
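Throughout, for phosphorylation enrichment, bacterial display: 11-residue human phosphosite peptides and single-mutation variants displayed on the E. coli surface, counted by deep sequencing, each peptide's frequency after selection divided by its frequency in the unselected input library; frequency after pTyr selection over input frequency; kinase dosed for 20-30% of maximal phosphorylation in three min.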

MERTK, sequence (Q12866 whole entry, looked up): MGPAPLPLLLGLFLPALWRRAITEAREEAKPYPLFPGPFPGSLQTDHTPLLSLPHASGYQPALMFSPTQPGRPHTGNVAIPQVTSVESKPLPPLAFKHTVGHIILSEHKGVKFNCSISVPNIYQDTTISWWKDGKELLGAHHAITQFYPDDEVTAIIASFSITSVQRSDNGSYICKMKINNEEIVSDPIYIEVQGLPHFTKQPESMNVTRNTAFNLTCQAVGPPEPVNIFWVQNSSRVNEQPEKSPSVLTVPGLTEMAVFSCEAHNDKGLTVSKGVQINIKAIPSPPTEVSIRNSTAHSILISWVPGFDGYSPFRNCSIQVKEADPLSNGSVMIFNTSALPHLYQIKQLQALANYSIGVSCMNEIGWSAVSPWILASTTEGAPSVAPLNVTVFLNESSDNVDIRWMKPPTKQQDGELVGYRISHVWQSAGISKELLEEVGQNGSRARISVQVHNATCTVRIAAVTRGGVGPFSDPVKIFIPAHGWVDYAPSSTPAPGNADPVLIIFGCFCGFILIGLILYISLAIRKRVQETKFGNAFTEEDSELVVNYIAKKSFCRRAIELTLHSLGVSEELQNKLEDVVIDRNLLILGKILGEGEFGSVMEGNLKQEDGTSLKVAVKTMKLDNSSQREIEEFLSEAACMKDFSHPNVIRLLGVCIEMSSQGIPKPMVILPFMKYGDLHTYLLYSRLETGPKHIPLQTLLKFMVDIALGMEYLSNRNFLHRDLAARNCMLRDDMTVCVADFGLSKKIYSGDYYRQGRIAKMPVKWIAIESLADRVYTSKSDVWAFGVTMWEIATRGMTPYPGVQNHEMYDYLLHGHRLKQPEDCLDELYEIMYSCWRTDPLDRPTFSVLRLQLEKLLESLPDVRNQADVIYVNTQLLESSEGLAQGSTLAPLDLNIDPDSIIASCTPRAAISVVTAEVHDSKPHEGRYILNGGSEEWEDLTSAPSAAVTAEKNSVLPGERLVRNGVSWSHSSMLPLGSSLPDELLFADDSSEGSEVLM
FGFR3, sequence (P22607 whole entry, looked up): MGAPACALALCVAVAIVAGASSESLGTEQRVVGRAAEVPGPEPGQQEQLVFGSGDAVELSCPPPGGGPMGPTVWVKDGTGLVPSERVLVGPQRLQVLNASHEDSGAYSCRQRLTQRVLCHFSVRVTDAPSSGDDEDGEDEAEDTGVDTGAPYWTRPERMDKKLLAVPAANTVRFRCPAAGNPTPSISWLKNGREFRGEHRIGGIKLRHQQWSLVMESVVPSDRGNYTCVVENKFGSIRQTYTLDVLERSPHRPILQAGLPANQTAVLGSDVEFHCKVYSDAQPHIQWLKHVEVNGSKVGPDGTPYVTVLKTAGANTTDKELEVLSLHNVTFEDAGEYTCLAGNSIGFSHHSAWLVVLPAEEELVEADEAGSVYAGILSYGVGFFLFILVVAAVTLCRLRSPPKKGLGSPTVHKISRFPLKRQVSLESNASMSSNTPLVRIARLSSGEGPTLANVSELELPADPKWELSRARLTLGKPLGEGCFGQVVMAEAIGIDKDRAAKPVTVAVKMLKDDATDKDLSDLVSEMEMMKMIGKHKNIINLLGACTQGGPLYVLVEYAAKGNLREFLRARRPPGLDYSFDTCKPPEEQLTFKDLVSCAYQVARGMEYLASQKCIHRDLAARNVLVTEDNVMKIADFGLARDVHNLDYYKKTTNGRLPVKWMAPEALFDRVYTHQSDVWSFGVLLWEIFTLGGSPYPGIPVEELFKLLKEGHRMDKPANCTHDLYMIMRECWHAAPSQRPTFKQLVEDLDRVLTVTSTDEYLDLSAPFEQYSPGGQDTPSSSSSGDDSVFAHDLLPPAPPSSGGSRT
FGFR1, sequence (P11362 whole entry, looked up): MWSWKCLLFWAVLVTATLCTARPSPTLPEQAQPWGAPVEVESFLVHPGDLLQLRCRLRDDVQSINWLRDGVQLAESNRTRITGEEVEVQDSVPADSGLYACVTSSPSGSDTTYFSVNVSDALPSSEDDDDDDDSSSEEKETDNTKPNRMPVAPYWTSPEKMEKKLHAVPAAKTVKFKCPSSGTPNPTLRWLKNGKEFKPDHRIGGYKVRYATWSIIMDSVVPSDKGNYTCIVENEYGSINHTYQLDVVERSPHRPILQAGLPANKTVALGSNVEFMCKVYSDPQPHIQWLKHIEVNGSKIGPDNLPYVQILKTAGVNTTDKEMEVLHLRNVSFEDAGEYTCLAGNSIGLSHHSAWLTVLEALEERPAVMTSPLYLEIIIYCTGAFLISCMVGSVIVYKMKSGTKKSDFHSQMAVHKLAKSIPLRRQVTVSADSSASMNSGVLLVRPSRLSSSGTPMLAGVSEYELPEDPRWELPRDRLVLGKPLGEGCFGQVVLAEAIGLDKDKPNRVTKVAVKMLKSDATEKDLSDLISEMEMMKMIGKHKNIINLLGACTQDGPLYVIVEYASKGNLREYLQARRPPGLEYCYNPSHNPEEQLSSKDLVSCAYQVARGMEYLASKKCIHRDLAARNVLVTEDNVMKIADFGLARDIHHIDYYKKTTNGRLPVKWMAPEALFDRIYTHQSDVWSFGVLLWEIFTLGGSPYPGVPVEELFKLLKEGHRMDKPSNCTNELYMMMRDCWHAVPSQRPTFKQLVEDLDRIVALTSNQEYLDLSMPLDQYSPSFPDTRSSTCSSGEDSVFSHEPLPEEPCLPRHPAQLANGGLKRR
Hck, sequence (P08631 whole entry, looked up): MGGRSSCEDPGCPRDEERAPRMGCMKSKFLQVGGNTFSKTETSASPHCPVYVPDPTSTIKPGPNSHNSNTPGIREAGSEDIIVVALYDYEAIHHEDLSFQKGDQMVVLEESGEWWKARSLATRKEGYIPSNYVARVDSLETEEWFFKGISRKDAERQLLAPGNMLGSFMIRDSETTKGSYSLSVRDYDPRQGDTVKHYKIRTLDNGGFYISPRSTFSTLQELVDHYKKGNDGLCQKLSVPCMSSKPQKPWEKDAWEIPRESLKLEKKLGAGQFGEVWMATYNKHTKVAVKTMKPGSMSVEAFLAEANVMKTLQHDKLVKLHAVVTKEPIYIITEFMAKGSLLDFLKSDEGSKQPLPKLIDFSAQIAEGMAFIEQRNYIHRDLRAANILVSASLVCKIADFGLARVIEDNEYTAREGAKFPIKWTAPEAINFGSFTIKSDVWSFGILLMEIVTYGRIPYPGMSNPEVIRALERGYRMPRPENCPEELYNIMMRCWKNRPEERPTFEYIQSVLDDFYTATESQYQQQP
Fyn, sequence (P06241 whole entry, looked up): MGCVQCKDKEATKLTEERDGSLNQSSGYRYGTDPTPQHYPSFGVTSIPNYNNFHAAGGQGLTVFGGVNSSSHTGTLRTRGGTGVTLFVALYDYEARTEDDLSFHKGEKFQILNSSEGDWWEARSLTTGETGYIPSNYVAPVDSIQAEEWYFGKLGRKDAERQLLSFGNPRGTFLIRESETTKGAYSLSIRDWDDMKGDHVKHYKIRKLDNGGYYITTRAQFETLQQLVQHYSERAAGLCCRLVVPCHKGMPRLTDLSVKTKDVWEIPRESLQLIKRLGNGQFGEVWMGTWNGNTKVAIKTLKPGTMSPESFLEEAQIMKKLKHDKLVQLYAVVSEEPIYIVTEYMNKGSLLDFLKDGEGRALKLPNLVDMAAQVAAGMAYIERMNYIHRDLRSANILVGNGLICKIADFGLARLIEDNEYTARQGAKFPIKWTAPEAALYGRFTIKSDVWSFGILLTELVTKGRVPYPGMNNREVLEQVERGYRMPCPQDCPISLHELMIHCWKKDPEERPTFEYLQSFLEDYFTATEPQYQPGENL
Jak2, sequence (O60674 whole entry, looked up): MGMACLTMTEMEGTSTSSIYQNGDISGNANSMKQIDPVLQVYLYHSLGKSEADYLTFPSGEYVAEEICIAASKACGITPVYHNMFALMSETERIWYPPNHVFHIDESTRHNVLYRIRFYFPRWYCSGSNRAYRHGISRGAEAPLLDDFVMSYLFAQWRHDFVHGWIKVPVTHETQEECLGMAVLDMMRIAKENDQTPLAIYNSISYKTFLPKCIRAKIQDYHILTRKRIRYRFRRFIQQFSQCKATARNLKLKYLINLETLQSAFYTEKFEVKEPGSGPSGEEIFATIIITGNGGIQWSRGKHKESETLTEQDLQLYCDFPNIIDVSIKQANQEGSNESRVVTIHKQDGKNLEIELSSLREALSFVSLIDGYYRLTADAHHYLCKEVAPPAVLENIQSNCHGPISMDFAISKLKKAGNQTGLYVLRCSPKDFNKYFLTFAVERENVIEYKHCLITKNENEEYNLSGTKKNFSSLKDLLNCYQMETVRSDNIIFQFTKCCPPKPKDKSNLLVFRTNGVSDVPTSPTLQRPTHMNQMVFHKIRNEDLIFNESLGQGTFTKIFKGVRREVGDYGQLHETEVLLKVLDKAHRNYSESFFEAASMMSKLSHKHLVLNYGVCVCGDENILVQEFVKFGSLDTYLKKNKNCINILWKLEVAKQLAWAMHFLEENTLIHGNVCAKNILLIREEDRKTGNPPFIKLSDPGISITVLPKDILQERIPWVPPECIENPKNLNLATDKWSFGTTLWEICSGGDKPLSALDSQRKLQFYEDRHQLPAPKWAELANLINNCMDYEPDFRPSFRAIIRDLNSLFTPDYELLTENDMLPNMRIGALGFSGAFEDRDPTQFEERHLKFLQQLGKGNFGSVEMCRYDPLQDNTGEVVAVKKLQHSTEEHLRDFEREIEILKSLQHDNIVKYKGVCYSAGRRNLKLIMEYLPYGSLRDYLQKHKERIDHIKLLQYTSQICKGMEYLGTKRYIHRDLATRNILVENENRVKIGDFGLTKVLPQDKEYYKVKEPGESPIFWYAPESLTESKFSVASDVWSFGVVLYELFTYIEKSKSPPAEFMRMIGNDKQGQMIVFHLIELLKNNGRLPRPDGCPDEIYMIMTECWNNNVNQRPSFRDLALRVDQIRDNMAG

Sequence | SH2 binding enrichment (c-Src SH2) | SH2 binding enrichment (SHP2-C SH2) | SH2 binding enrichment (Grb2 SH2) | phosphorylation enrichment (AncSZ) | phosphorylation enrichment (Fes) | phosphorylation enrichment (Fer (mouse)) | phosphorylation enrichment (Fyn) | phosphorylation enrichment (EPHB1) | phosphorylation enrichment (Hck) | phosphorylation enrichment (FGFR1) | phosphorylation enrichment (Jak2) | phosphorylation enrichment (FGFR3) | phosphorylation enrichment (c-Src) | phosphorylation enrichment (c-Abl (mouse)) | phosphorylation enrichment (MERTK) | phosphorylation enrichment (EPHB2)
FSIAQYCCRMG [LRRK2_Y2023_G2019S_YF] | 0.981 | 0.826 | 1.17 | 0.839 | 0.868 | 0.4 | 0.401 | 0.684 | 0.449 | 0.479 | 0.758 | 0.57 | 0.425 | 1.03 | 0.994 | 5.07
PDSVDYPKKGF [CTSK_Y121_R122P_YF] | 0.531 | 0.486 | 0.872 | 1.75 | 1.78 | 1.52 | 1.17 | 1.48 | 1.15 | 1.12 | 1.97 | 1.05 | 1.52 | 2.12 | 1.31 | 1.13
IVKAFYVRARA [AIPL1_Y268_YF] | 0.601 | 1.2 | 0.872 | 1.11 | 1.07 | 0.465 | 0.433 | 0.5 | 0.494 | 0.464 | 0.95 | 0.688 | 0.396 | 0.699 | 0.424 | 0.588
TNYPLYLRSLE [MTM1_Y71_R69P] | 0.433 | 0.862 | 0.96 | 1.18 | 1.36 | 0.555 | 0.603 | 1.01 | 0.654 | 0.671 | 1.28 | 0.987 | 0.499 | 0.668 | 0.551 | 0.727
ILTLKYLIEHG [ACTG1_Y69_P70L] | 0.88 | 1.03 | 1.25 | 1.05 | 1.32 | 0.562 | 0.526 | 0.689 | 0.557 | 0.466 | 1.08 | 0.839 | 0.483 | 0.84 | 0.463 | 0.618
TFVKSYTIHFS [F5_Y2153_M2148T_YF] | 0.537 | 0.729 | 0.97 | 1.04 | 1.29 | 0.521 | 0.468 | 0.599 | 0.424 | 0.517 | 1.28 | 0.899 | 0.447 | 0.873 | 0.434 | 0.468
DPADRYLTEQF [CDKL5_Y286_C291Y_YF] | 0.571 | 0.618 | 0.889 | 1.11 | 1.35 | 0.513 | 0.527 | 0.514 | 0.558 | 0.591 | 1.11 | 0.645 | 0.594 | 0.733 | 0.6 | 0.747
VIKDKYPQARF [APTX_Y209_K211Q_YF] | 0.562 | 1.02 | 1.06 | 0.453 | 0.579 | 0.328 | 0.35 | 0.436 | 0.308 | 0.367 | 0.553 | 0.469 | 0.44 | 0.47 | 0.406 | 0.326
SQSPHYFRSGQ [GPATCH8_Y1038_R1043Q] | 0.484 | 0.533 | 0.869 | 0.551 | 0.524 | 0.359 | 0.345 | 0.435 | 0.325 | 0.366 | 0.538 | 0.405 | 0.427 | 0.456 | 0.419 | 0.316
SFDLDYDSVQP [MYC_Y16_N11S_YF] | 0.441 | 0.633 | 0.749 | 1.78 | 1.31 | 0.748 | 0.833 | 0.644 | 0.688 | 0.674 | 1.3 | 0.749 | 0.924 | 0.811 | 0.586 | 0.911
AVRVFYRKCPH [EPHB2_Y194_R199H] | 0.509 | 0.497 | 0.646 | 1.22 | 1.08 | 0.452 | 0.496 | 0.588 | 0.604 | 0.563 | 0.804 | 0.668 | 0.424 | 1.14 | 0.485 | 0.711
DISEPYEVYRI [IRF8_Y107_K108E] | 0.638 | 0.401 | 0.76 | 2.01 | 1.05 | 9.63 | 1.55 | 0.425 | 1.28 | 0.736 | 0.912 | 0.624 | 3.97 | 0.862 | 0.522 | 0.634
WGLCSYYETSK [MAGED2_Y448_R446C] | 0.586 | 0.526 | 0.765 | 1.38 | 1.31 | 0.572 | 0.488 | 0.865 | 0.58 | 0.76 | 1.35 | 1.02 | 0.712 | 0.818 | 0.56 | 0.73
PSDSGYSYETI [MAP1B_Y1921] | 7.7 | 0.523 | 1.79 | 1.35 | 1.38 | 0.642 | 0.599 | 0.596 | 0.577 | 0.627 | 0.848 | 0.688 | 0.454 | 0.664 | 0.583 | 0.467
LKVDVYGRSHK [FUT3_Y222] | 0.561 | 0.621 | 0.715 | 1 | 0.869 | 0.441 | 0.324 | 0.553 | 0.625 | 0.782 | 0.588 | 1.1 | 0.379 | 0.629 | 0.37 | 0.778
EKIANYKEGTY [CLRN1_Y171] | 0.433 | 0.641 | 0.803 | 0.671 | 0.704 | 0.552 | 0.546 | 0.573 | 0.489 | 0.45 | 0.654 | 0.449 | 0.468 | 0.76 | 0.41 | 0.389
DTCPPYVLSQV [GJB4_Y237_G242V] | 0.624 | 0.797 | 0.77 | 1.01 | 1.11 | 1.2 | 0.573 | 0.685 | 0.606 | 0.475 | 0.969 | 0.776 | 0.606 | 0.668 | 0.432 | 0.635
PVKDGYQMAQP [CSF1R_Y873_L868P] | 0.527 | 0.673 | 0.838 | 0.682 | 1.11 | 0.591 | 0.433 | 0.451 | 0.833 | 1.05 | 0.521 | 0.694 | 0.574 | 0.278 | 0.393 | 0.474
YETVKYINNER [ABCB7_Y345_F346I] | 11.8 | 1.24 | 1.48 | 0.858 | 0.943 | 10.5 | 1.22 | 0.73 | 1.96 | 1.22 | 0.803 | 0.832 | 1.1 | 0.619 | 0.903 | 0.623

The next lines start with results.

SH2 binding enrichment (c-Src SH2) | SH2 binding enrichment (SHP2-C SH2) | SH2 binding enrichment (Grb2 SH2) | Sequence | phosphorylation enrichment (AncSZ) | phosphorylation enrichment (Fes) | phosphorylation enrichment (Fer (mouse)) | phosphorylation enrichment (Fyn) | phosphorylation enrichment (EPHB1) | phosphorylation enrichment (Hck) | phosphorylation enrichment (FGFR1) | phosphorylation enrichment (Jak2) | phosphorylation enrichment (FGFR3) | phosphorylation enrichment (c-Src) | phosphorylation enrichment (c-Abl (mouse)) | phosphorylation enrichment (MERTK) | phosphorylation enrichment (EPHB2)
5.74 | 2.51 | 1.06 | RPSELYYSKIS [SMG1_Y2253_G2258S] | 1.79 | 1.02 | 2.25 | 1.4 | 2.17 | 11.1 | 5.05 | 1.05 | 3.5 | 2.96 | 0.926 | 14.6 | 1.31
0.401 | 0.604 | 0.787 | TDKLFYIFTPG [SLC27A4_Y243_S247P_YF] | 1.36 | 1.49 | 0.544 | 0.392 | 0.776 | 0.607 | 0.91 | 1.65 | 1.11 | 0.556 | 0.873 | 1.72 | 0.583
0.401 | 0.666 | 1.04 | HQNGTYGLHQD [SGSH_Y89_M88T] | 0.615 | 0.764 | 0.431 | 0.61 | 0.418 | 0.753 | 0.71 | 0.459 | 0.727 | 0.599 | 0.555 | 0.414 | 0.541
0.427 | 0.527 | 0.809 | SVETPYGSVTF [NDRG2_Y47] | 0.82 | 0.928 | 5.24 | 5.93 | 0.501 | 2.16 | 0.397 | 0.606 | 0.53 | 4.56 | 0.635 | 0.52 | 0.438
0.422 | 0.581 | 0.753 | YRKNIYNVKST [SYNE2_Y575] | 0.488 | 0.47 | 0.425 | 0.458 | 0.337 | 0.324 | 0.384 | 0.37 | 0.48 | 0.474 | 0.405 | 0.354 | 0.423
0.528 | 1.07 | 0.753 | EVDGLYREAPI [MYL12B_Y143_E141G] | 0.879 | 0.976 | 0.504 | 0.488 | 0.503 | 0.536 | 0.629 | 0.83 | 0.718 | 0.482 | 0.662 | 0.443 | 0.527
1.05 | 0.683 | 0.907 | YSNVLYRPRGA [TMIGD2_Y197] | 0.923 | 0.753 | 4.97 | 0.615 | 1.34 | 0.651 | 0.784 | 0.596 | 0.614 | 0.558 | 0.692 | 2.23 | 0.6
0.41 | 0.471 | 0.682 | KDIENHIQDGK [RAD50_Y964_Y964H] | 0.69 | 0.684 | 0.414 | 0.488 | 0.378 | 0.463 | 0.41 | 0.621 | 0.445 | 0.446 | 0.392 | 0.413 | 0.542
0.682 | 4.56 | 0.717 | YSNVLYRPRGP [TMIGD2_Y197_A202P] | 0.796 | 0.656 | 1.83 | 0.501 | 0.492 | 0.69 | 0.685 | 0.501 | 0.525 | 0.421 | 0.461 | 0.856 | 0.576
0.469 | 1.39 | 0.871 | TKGNEYVFRVA | 0.826 | 0.82 | 0.386 | 0.496 | 0.415 | 0.511 | 0.519 | 0.549 | 0.619 | 0.489 | 0.537 | 0.452 | 0.565
1.08 | 1.26 | 1.31 | CYCSWYRGWAP [TIMP3_Y195_G190C] | 1.03 | 1.08 | 3.41 | 0.721 | 0.628 | 1.01 | 1.19 | 1.04 | 1.02 | 3.7 | 0.882 | 0.733 | 0.632
0.442 | 0.405 | 0.688 | DSDTDYGSGYP [RNASEH2A_Y206_L202S] | 1.36 | 1.55 | 0.646 | 0.677 | 0.708 | 0.699 | 0.647 | 1.43 | 0.899 | 0.689 | 1.01 | 0.575 | 0.573
0.413 | 0.649 | 0.698 | KLKRSYSSPDI [USP8_Y717] | 0.552 | 0.613 | 0.38 | 0.322 | 0.376 | 0.379 | 0.365 | 0.524 | 0.461 | 0.396 | 0.412 | 0.43 | 0.688
1.22 | 0.545 | 0.839 | SQSAKYDMAED [TTC21B_Y1213_I1208S] | 0.9 | 0.894 | 0.509 | 0.556 | 0.461 | 0.582 | 0.634 | 0.858 | 0.56 | 0.566 | 0.661 | 0.441 | 0.635
